What was measured:
[1] = molecular target: Halo-FtsZ (FtsZ fused with HaloTag) (Caulobacter crescentus); experiment: single molecule tracking in live cells
[2] = molecular target: Halo-FtsZ^D216A (Caulobacter crescentus); experiment: single molecule tracking in live cells

| monomer lifetime [1] [s] | monomer lifetime [2] [s] | Substance |
| --- | --- | --- |
| 12.2 | – | Halo-FtsZ (FtsZ fused with HaloTag) (natural protein) |
| – | 16.2 | Halo-FtsZ^D216A (natural protein) |

From paper doi:10.1101/2023.09.08.556907
